Experimental data: the supplement of paper PMC7877785
± gives the uncertainty stated by the source.

Test: self-splicing fitness, log relative to wild type (ln ratio); higher = more splicing; Tetrahymena group I intron in knt gene, E. coli kanamycin selection, DiMSum; sequences stand for … in CUCUCU…GGAGGGAAAAGUUAUCAGGCAUGCACCUGGUAGCUAGUCUUUAAACCAAUAGAUUGCAUCGGUUUAAAAGGCAAGACCGUCAAAUUGCGGGAAAGGGGUCAACAGCCGUUCAGUACCAAGUCUCAGGGGAAACUUUGAGAUGGCCUUGCAAAGGGUAUGGUAAUAAGCUGACGGACAUGGUCCUAACCACGCAGCCAAGUCCUAAGUCAACAGAUCUUCUGUUGAUAUGGAUGCAGUUCACAGACUAAAUGUCGGUCGGGGAAGAUGUAUUCUUCUCAUAAGAUAUAGUCGGACCUCUCCUUAAUGGGAGCUAGCGGAUGAAGUGAUGCAACACUGGAGCCGCUGGGAACUAAUUUGUAUGCGAAAGUAUAUUGAUUAGUUUUGGAGUACUCGUGGUCG
Procedure, shortened: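 Library with all eight P1ex-region intron nucleotides randomised, intron inside the knt kanamycin-resistance gene on pET-22b(+), in E. coli BL21(DE3). Cells grew overnight at 37°C or 30°C on LB agar with or without 25 μg/mL kanamycin (plus 100 μg/mL carbenicillin, 50 μM IPTG, 0.2% rhamnose), in six replicate transformations. Pooled colonies were amplicon-sequenced on Illumina HiSeq 2500. DiMSum fitness is the error-weighted combination of wild-type-normalised replicate fold changes, kanamycin versus none.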

AUCUAGCAAUAUUACGGCUA
self-splicing fitness (ln) (30 °C): -3.6 ± 0.28
self-splicing fitness (ln) (37 °C): -2.4 ± 0.23

UGCAAGCAAUAUUACGGGAU
self-splicing fitness (ln) (30 °C): -3.04 ± 0.13
self-splicing fitness (ln) (37 °C): -2.89 ± 0.15

UCCUAGCAAUAUUACGGGCC
self-splicing fitness (ln) (30 °C): -2.79 ± 0.12
self-splicing fitness (ln) (37 °C): -1.17 ± 0.11

GGGCAGCAAUAUUACGCAUU
self-splicing fitness (ln) (30 °C): -0.0216 ± 0.078
self-splicing fitness (ln) (37 °C): -0.129 ± 0.11

AGGCAGCAAUAUUACGGUUC
self-splicing fitness (ln) (30 °C): -1.43 ± 0.14
self-splicing fitness (ln) (37 °C): -1.8 ± 0.19

GUGAAGCAAUAUUACGAACA
self-splicing fitness (ln) (30 °C): -0.242 ± 0.076
self-splicing fitness (ln) (37 °C): 0.0414 ± 0.11

GGUCAGCAAUAUUACGGCAU
self-splicing fitness (ln) (30 °C): -0.469 ± 0.073
self-splicing fitness (ln) (37 °C): 0.642 ± 0.1

UUUUAGCAAUAUUACGGCUC
self-splicing fitness (ln) (30 °C): -2.49 ± 0.23
self-splicing fitness (ln) (37 °C): -0.329 ± 0.21

AAAGAGCAAUAUUACGCGAU
self-splicing fitness (ln) (30 °C): -2.63 ± 0.35
self-splicing fitness (ln) (37 °C): -2.04 ± 0.34

CCGGAGCAAUAUUACGACGC
self-splicing fitness (ln) (30 °C): -3.23 ± 0.22
self-splicing fitness (ln) (37 °C): -2.22 ± 0.32

CUCAAGCAAUAUUACGAAAC
self-splicing fitness (ln) (30 °C): -3.86 ± 0.32
self-splicing fitness (ln) (37 °C): -1.55 ± 0.17

CCGGAGCAAUAUUACGAAAA
self-splicing fitness (ln) (37 °C): -2.99 ± 0.48

GACAAGCAAUAUUACGGUUG
self-splicing fitness (ln) (30 °C): -2.3 ± 0.087
self-splicing fitness (ln) (37 °C): -1.15 ± 0.11

GAACAGCAAUAUUACGACUU
self-splicing fitness (ln) (30 °C): -0.206 ± 0.072
self-splicing fitness (ln) (37 °C): 0.314 ± 0.088

ACAAAGCAAUAUUACGGGAU
self-splicing fitness (ln) (30 °C): -1.19 ± 0.058
self-splicing fitness (ln) (37 °C): -0.492 ± 0.076

AAAGAGCAAUAUUACGGACA
self-splicing fitness (ln) (30 °C): -2.68 ± 0.3
self-splicing fitness (ln) (37 °C): -1.81 ± 0.32

UUCUAGCAAUAUUACGCUUG
self-splicing fitness (ln) (30 °C): -4.24 ± 0.33
self-splicing fitness (ln) (37 °C): -2.67 ± 0.22

CGCUAGCAAUAUUACGAGUC
self-splicing fitness (ln) (30 °C): -1.8 ± 0.13
self-splicing fitness (ln) (37 °C): -1.01 ± 0.15

GCAGAGCAAUAUUACGUUUU
self-splicing fitness (ln) (30 °C): -3.54 ± 0.17
self-splicing fitness (ln) (37 °C): -3.12 ± 0.2

CUCCAGCAAUAUUACGCGGG
self-splicing fitness (ln) (30 °C): -3.86 ± 0.24
self-splicing fitness (ln) (37 °C): -1.82 ± 0.23

GCUCAGCAAUAUUACGGUCC
self-splicing fitness (ln) (30 °C): -0.681 ± 0.065
self-splicing fitness (ln) (37 °C): 0.158 ± 0.087

GUUAAGCAAUAUUACGCUGA
self-splicing fitness (ln) (30 °C): -2.98 ± 0.22
self-splicing fitness (ln) (37 °C): -1.4 ± 0.2

GUGAAGCAAUAUUACGAGAG
self-splicing fitness (ln) (30 °C): -2.92 ± 0.11
self-splicing fitness (ln) (37 °C): -1.7 ± 0.1

AGUGAGCAAUAUUACGACGA
self-splicing fitness (ln) (30 °C): -2.44 ± 0.21
self-splicing fitness (ln) (37 °C): -1.13 ± 0.24

CUUAAGCAAUAUUACGGCCC
self-splicing fitness (ln) (30 °C): -2.8 ± 0.4

UCACAGCAAUAUUACGUUAC
self-splicing fitness (ln) (30 °C): -3.74 ± 0.23
self-splicing fitness (ln) (37 °C): -2.06 ± 0.16

UGGCAGCAAUAUUACGUCCU
self-splicing fitness (ln) (30 °C): -0.363 ± 0.11
self-splicing fitness (ln) (37 °C): 0.0307 ± 0.15

AGUGAGCAAUAUUACGCUGC
self-splicing fitness (ln) (30 °C): -2.29 ± 0.46
self-splicing fitness (ln) (37 °C): -2.44 ± 0.44

AUCUAGCAAUAUUACGAAAG
self-splicing fitness (ln) (30 °C): -3.62 ± 0.27
self-splicing fitness (ln) (37 °C): -2.15 ± 0.24

AAAGAGCAAUAUUACGAUGG
self-splicing fitness (ln) (30 °C): -3.63 ± 0.33
self-splicing fitness (ln) (37 °C): -1.89 ± 0.25
